{"source": "patent US9074002B2", "about": "“PTP1B inhibitors” (Cold Spring Harbor Laboratory, priority 2009, dated 2015)", "key": {"[1]": {"system": "tyrosine phosphorylation of insulin receptor β (IRβ) and insulin receptor substrate-1 (IRS-1) in 293T cells", "assay": "Insulin signaling in 293T cells expressing intrabody: tyrosine phosphorylation of IRβ and IRS-1", "format": "cell-based", "excerpt": "In order to validate this approach further, Applicant tested the effects of expressing one of these (scFv45) as a single chain antibody fragment “intrabody” to PTP1B, using 293T cells as a convenient expression system. This intrabody was expressed transiently and then tested for effects on insulin signaling, focusing initially on the tyrosine phosphorylation status of the β-subunit of the insulin receptor and IRS-1 (FIG. 2). Initial indications are that for both substrates expression of the intrabody had no impact on the basal level of tyrosyl phosphorylation, but it enhanced and extended the time course of insulin-induced phosphorylation, consistent with our proposed mechanism of action.\nIntrabody scFv45 was transfected in 293T cells, serum starved and insulin stimulated to investigate the physiological relevance of this intrabody expression in mammalian cells in the context of PTP1B mediated regulation of insulin signaling (or insulin signaling mediated redox regulation of PTP1B activity). Insulin stimulated 293T cells with or without the intrabody were harvested in RIPA buffer (25 mM HEPES, pH 7.5, 150 mM NaCl, 0.25% Deoxychloate, 10% Glycerol, 25 mM NaF, 10 mM MgCl2, 1 mM EDTA, 1% TritonX-100, 0.5 mM PMSF, 10 mM Benzamidine, protease inhibitor cocktail, 1 mM sodium vanadate) and the cell lysates were examined for total tyrosine phosphosphorylation pattern using phospho-tyrosine specific antibodies (FIGS. 3 and 4)."}, "[2]": {"molecular_target": "T1, endogenous PTP1B under reducing conditions (Homo sapiens, UniProt P18031)", "T1 construct": "endogenous in cells; host or cells: 293T cells (transfected only with the scFv intrabody)", "T1 sequence (P18031 1-435)": "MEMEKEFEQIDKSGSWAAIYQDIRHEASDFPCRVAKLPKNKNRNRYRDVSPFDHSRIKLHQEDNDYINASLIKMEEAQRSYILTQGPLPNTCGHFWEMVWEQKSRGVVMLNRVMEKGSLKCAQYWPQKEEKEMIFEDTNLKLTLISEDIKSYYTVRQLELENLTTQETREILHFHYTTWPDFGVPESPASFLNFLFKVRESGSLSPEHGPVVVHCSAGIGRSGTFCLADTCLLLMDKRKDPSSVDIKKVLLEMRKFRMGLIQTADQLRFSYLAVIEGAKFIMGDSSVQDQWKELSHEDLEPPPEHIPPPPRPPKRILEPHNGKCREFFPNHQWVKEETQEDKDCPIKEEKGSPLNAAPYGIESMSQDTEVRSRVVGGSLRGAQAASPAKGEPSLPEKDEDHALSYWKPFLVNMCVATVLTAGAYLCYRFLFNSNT", "assay": "Intrabody interaction in 293T cells under reducing condition (NAC, TCEP) (Ni-NTA pull down / immunoprecipitation)", "format": "cell-based", "settings": "20 mM NAC, lysis buffer with 2 mM TCEP, FIGS. 11, 12", "description": "One of the positive candidate scFvs (scFv45) was cloned in pcDNA3.2/V5-GW/D-TOPO expression vector and transiently expressed in mammalian cells as stable intracellular antibody (aka intrabody) (FIG. 10). To detect PTP1B-OX and scFv45 interaction in mammalian cells, scFv45 was overexpressed in 293T cells as described herein (See Example 4) and 48 hours post transfection the cells were serum-starved for 16 hours in growth medium (DMEM, low glucose) without serum (FBS), then incubated with 1 mM H2O2 (in growth medium without serum) for 5 minutes at 37° C. or treated with 20 mM NAC (in growth medium without serum) for 1 hour at 37° C. Cells treated with H2O2 were washed twice with cold (4° C.) PBS and lysed in lysis buffer (25 mM HEPES, pH 7.4, 150 mM NaCl, 0.25% Deoxychloate, 1% TritonX-100, 25 mM NaF, 10 mM MgCl2, 1 mM EDTA, 10% Glycerol, 0.5 mM PMSF, 10 mM Benzamidine, protease inhibitor cocktail). Cells treated with NAC were lysed with lysis buffer containing 2 mM TCEP to ensure a post-lysis reducing environment. Interaction between PTP1B and intrabody45 were tested by pulling down the protein complex from 1 mg of total cell lysate with Ni-NTA agarose or by immunoprecipitating PTP with anti-PTP1B (FG6). For the pull down experiment, Ni-NTA agarose beads were incubated with the lysates (both oxidized and reduced) at 4° C. Protein complex bound to the Ni-NTA agarose beads was pulled down and washed three times; first with lysis buffer containing 20 mM imidazole followed by two more washes with wash buffer (PBS, pH 7.4, 20 mM imidazole, 0.05% BSA, 0.05% Tween-20 and protease inhibitors). Applicant used 20 mM imidazole in the wash buffer to reduce the non-specific binding of proteins with the Ni-NTA agarose beads. The complex was eluted with wash buffer containing 500 mM imidazole with gentle shaking at 4° C. and the eluate was mixed with SDS sample buffer with DTT. For the immunoprecipitation experiments, 1 mg of total cell lystates (both oxidized and reduced) was incubated with anti-PTP1B antibody (FG6) at 4° C. The interacting protein complex was immunoprecipitated after incubating the lysate-antibody mixture with protein A/G Sepharose at 4° C. After immunoprecipitation, Sepharose beads were washed three times; first with lysis buffer followed by two more washes with wash buffer (PBS, pH 7.4, 0.05% BSA, 0.05% Tween-20 and protease inhibitors). The Sepharose beads were then heated at 90° C. in 2×SDS sample buffer with DTT. Proteins from the pulled down or immunoprecipitated complex were separated by SDS-PAGE. PTP was detected with anti-PTP1B antibody (FG6) and the intrabodies were detected with anti-HA (3F10)-HRP antibody [anti-HA (3F10)-HRP, Roche] by immunoblotting.\nIn the initial in vitro phosphatase screening assay using reversibly oxidized (with H2O2) recombinant PTP1B, Applicant found four different PTP1B-OX specific scFvs (scFv45, scFv57, scFv64 and scFv106) from the initial pool of 12 different scFvs. […] Applicant has also shown that scFv45, expressed as an intrabody in mammalian cells, can bind to endogenous PTP1B-OX but not endogenous PTP under reducing conditions. Further assessment was carried out to identify additional PTP1B-OX-specific intrabodies. Additional scFvs have been subcloned in pcDNA3.2/V5-GW/D-TOPO mammalian expression vector (FIG. 10) from their respective phagemid constructs. […]"}}, "note": "Entries after “also recorded” stand apart in the source; their conditions may differ."}
{"molecule": "scFv45: conformation-sensor scFv binding PTP1B-OX, SEQ ID NO: 26 and 78; expressed as intrabody (protein) scFv: MKKTAIAIAVALAGFATVAQAALTQPSSVSANPGGTVKITCSGSSSAYGYGWYQQKSPGSAPVTVIYNNNKRPSNIPSRFSGSKSGSTGTLTITGVQAEDEAVYFCGSEDSSTDAIFGAGTTLTVLGQSSRSSTVTLDESGGGLQAPGGALSLVCKASGFTFSSYDMGWIRQAPGKGLEYVAGITDNGRYASYGSAVDGRATISRDNGQSSVRLQLNNLRAEDTGTYYCARDDGSGWTGNSIDAWGHGTEVIVSSTSGQAGQHHHHHHGAYPYDVPDYAS", "values": [{"measurement": "basal level of tyrosyl phosphorylation of insulin receptor β-subunit and IRS-1", "setting": "[1]; 293T cells expressing intrabody, no insulin", "value": "no impact"}, {"measurement": "tyrosine phosphorylation of insulin receptor β (IRβ)", "setting": "[1]; 293T cells overexpressing intrabody, insulin stimulated, FIG. 3", "value": "increased and prolonged tyrosine phosphorylation"}, {"measurement": "tyrosine phosphorylation of insulin receptor substrate-1 (IRS-1)", "setting": "[1]; 293T cells overexpressing intrabody, insulin stimulated, FIG. 4", "value": "increased and prolonged tyrosine phosphorylation"}, {"measurement": "binding of intrabody to endogenous PTP1B under reducing conditions", "setting": "[2]", "value": "not in the cells that were under reducing condition; also recorded: not in the presence of NAC and TCEP"}]}
